In patent publication US6037145 one finds enzyme activity after refolding data, which are given here for one substance.

The assay addresses Z-Phe-Leu-Glu-4-nitranilide.

In turn, recombinant V8 protease (V8D) (enzyme) showed an enzyme activity after refolding of 30 µg/mL.
